From patent publication US11833164B2, “Methods of treating Fabry disease in patients having a mutation in the GLA gene” (Amicus Therapeutics, Inc., priority 2019, dated 2023)

B1: G116R (protein)
chain: MQLRNPELHLGCALALRFLALVSWDIPGARALDNGLARTPTMGWLHWERFMCNLDCQEEPDSCISEKLFMEMAELMVSEGWKDAGYEYLCIDDCWMAPQRDSEGRLQADPQRFPHRIRQLANYVHSKGLKLGIYADVGNKTCAGFPGSFGYYDIDAQTFADWGVDLLKFDGCYCDSLENLADGYKHMSLALNRTGRSIVYSCEWPLYMWPFQKPNYTEIRQYCNHWRNFADIDDSWKSIKSILDWTSFNQERIVDVAGPGGWNDPDMLVIGNFGLSWNQQVTQMALWAIMAAPLFMSNDLRHISPQAKALLQDKDVIAINQDPLGKQGYQLRQGDNFEVWERPLSGLAWAVAMINRQEIGGPRSYTIAVASLGKGVACNPACFITQLLPVKRKLGFYEWTSRLRSHINPTGTVLLQLENTMQMSLKDLL
B2: Y123F (protein)
chain: MQLRNPELHLGCALALRFLALVSWDIPGARALDNGLARTPTMGWLHWERFMCNLDCQEEPDSCISEKLFMEMAELMVSEGWKDAGYEYLCIDDCWMAPQRDSEGRLQADPQRFPHGIRQLANFVHSKGLKLGIYADVGNKTCAGFPGSFGYYDIDAQTFADWGVDLLKFDGCYCDSLENLADGYKHMSLALNRTGRSIVYSCEWPLYMWPFQKPNYTEIRQYCNHWRNFADIDDSWKSIKSILDWTSFNQERIVDVAGPGGWNDPDMLVIGNFGLSWNQQVTQMALWAIMAAPLFMSNDLRHISPQAKALLQDKDVIAINQDPLGKQGYQLRQGDNFEVWERPLSGLAWAVAMINRQEIGGPRSYTIAVASLGKGVACNPACFITQLLPVKRKLGFYEWTSRLRSHINPTGTVLLQLENTMQMSLKDLL
B3: A121V (protein)
chain: MQLRNPELHLGCALALRFLALVSWDIPGARALDNGLARTPTMGWLHWERFMCNLDCQEEPDSCISEKLFMEMAELMVSEGWKDAGYEYLCIDDCWMAPQRDSEGRLQADPQRFPHGIRQLVNYVHSKGLKLGIYADVGNKTCAGFPGSFGYYDIDAQTFADWGVDLLKFDGCYCDSLENLADGYKHMSLALNRTGRSIVYSCEWPLYMWPFQKPNYTEIRQYCNHWRNFADIDDSWKSIKSILDWTSFNQERIVDVAGPGGWNDPDMLVIGNFGLSWNQQVTQMALWAIMAAPLFMSNDLRHISPQAKALLQDKDVIAINQDPLGKQGYQLRQGDNFEVWERPLSGLAWAVAMINRQEIGGPRSYTIAVASLGKGVACNPACFITQLLPVKRKLGFYEWTSRLRSHINPTGTVLLQLENTMQMSLKDLL
B4: V124I (protein)
chain: MQLRNPELHLGCALALRFLALVSWDIPGARALDNGLARTPTMGWLHWERFMCNLDCQEEPDSCISEKLFMEMAELMVSEGWKDAGYEYLCIDDCWMAPQRDSEGRLQADPQRFPHGIRQLANYIHSKGLKLGIYADVGNKTCAGFPGSFGYYDIDAQTFADWGVDLLKFDGCYCDSLENLADGYKHMSLALNRTGRSIVYSCEWPLYMWPFQKPNYTEIRQYCNHWRNFADIDDSWKSIKSILDWTSFNQERIVDVAGPGGWNDPDMLVIGNFGLSWNQQVTQMALWAIMAAPLFMSNDLRHISPQAKALLQDKDVIAINQDPLGKQGYQLRQGDNFEVWERPLSGLAWAVAMINRQEIGGPRSYTIAVASLGKGVACNPACFITQLLPVKRKLGFYEWTSRLRSHINPTGTVLLQLENTMQMSLKDLL
B5: Y123D (protein)
chain: MQLRNPELHLGCALALRFLALVSWDIPGARALDNGLARTPTMGWLHWERFMCNLDCQEEPDSCISEKLFMEMAELMVSEGWKDAGYEYLCIDDCWMAPQRDSEGRLQADPQRFPHGIRQLANDVHSKGLKLGIYADVGNKTCAGFPGSFGYYDIDAQTFADWGVDLLKFDGCYCDSLENLADGYKHMSLALNRTGRSIVYSCEWPLYMWPFQKPNYTEIRQYCNHWRNFADIDDSWKSIKSILDWTSFNQERIVDVAGPGGWNDPDMLVIGNFGLSWNQQVTQMALWAIMAAPLFMSNDLRHISPQAKALLQDKDVIAINQDPLGKQGYQLRQGDNFEVWERPLSGLAWAVAMINRQEIGGPRSYTIAVASLGKGVACNPACFITQLLPVKRKLGFYEWTSRLRSHINPTGTVLLQLENTMQMSLKDLL
B6: I117M (protein)
chain: MQLRNPELHLGCALALRFLALVSWDIPGARALDNGLARTPTMGWLHWERFMCNLDCQEEPDSCISEKLFMEMAELMVSEGWKDAGYEYLCIDDCWMAPQRDSEGRLQADPQRFPHGMRQLANYVHSKGLKLGIYADVGNKTCAGFPGSFGYYDIDAQTFADWGVDLLKFDGCYCDSLENLADGYKHMSLALNRTGRSIVYSCEWPLYMWPFQKPNYTEIRQYCNHWRNFADIDDSWKSIKSILDWTSFNQERIVDVAGPGGWNDPDMLVIGNFGLSWNQQVTQMALWAIMAAPLFMSNDLRHISPQAKALLQDKDVIAINQDPLGKQGYQLRQGDNFEVWERPLSGLAWAVAMINRQEIGGPRSYTIAVASLGKGVACNPACFITQLLPVKRKLGFYEWTSRLRSHINPTGTVLLQLENTMQMSLKDLL
B7: I117T (protein)
chain: MQLRNPELHLGCALALRFLALVSWDIPGARALDNGLARTPTMGWLHWERFMCNLDCQEEPDSCISEKLFMEMAELMVSEGWKDAGYEYLCIDDCWMAPQRDSEGRLQADPQRFPHGTRQLANYVHSKGLKLGIYADVGNKTCAGFPGSFGYYDIDAQTFADWGVDLLKFDGCYCDSLENLADGYKHMSLALNRTGRSIVYSCEWPLYMWPFQKPNYTEIRQYCNHWRNFADIDDSWKSIKSILDWTSFNQERIVDVAGPGGWNDPDMLVIGNFGLSWNQQVTQMALWAIMAAPLFMSNDLRHISPQAKALLQDKDVIAINQDPLGKQGYQLRQGDNFEVWERPLSGLAWAVAMINRQEIGGPRSYTIAVASLGKGVACNPACFITQLLPVKRKLGFYEWTSRLRSHINPTGTVLLQLENTMQMSLKDLL
B8: Y123S (protein)
chain: MQLRNPELHLGCALALRFLALVSWDIPGARALDNGLARTPTMGWLHWERFMCNLDCQEEPDSCISEKLFMEMAELMVSEGWKDAGYEYLCIDDCWMAPQRDSEGRLQADPQRFPHGIRQLANSVHSKGLKLGIYADVGNKTCAGFPGSFGYYDIDAQTFADWGVDLLKFDGCYCDSLENLADGYKHMSLALNRTGRSIVYSCEWPLYMWPFQKPNYTEIRQYCNHWRNFADIDDSWKSIKSILDWTSFNQERIVDVAGPGGWNDPDMLVIGNFGLSWNQQVTQMALWAIMAAPLFMSNDLRHISPQAKALLQDKDVIAINQDPLGKQGYQLRQGDNFEVWERPLSGLAWAVAMINRQEIGGPRSYTIAVASLGKGVACNPACFITQLLPVKRKLGFYEWTSRLRSHINPTGTVLLQLENTMQMSLKDLL
B9: Y123N (protein)
chain: MQLRNPELHLGCALALRFLALVSWDIPGARALDNGLARTPTMGWLHWERFMCNLDCQEEPDSCISEKLFMEMAELMVSEGWKDAGYEYLCIDDCWMAPQRDSEGRLQADPQRFPHGIRQLANNVHSKGLKLGIYADVGNKTCAGFPGSFGYYDIDAQTFADWGVDLLKFDGCYCDSLENLADGYKHMSLALNRTGRSIVYSCEWPLYMWPFQKPNYTEIRQYCNHWRNFADIDDSWKSIKSILDWTSFNQERIVDVAGPGGWNDPDMLVIGNFGLSWNQQVTQMALWAIMAAPLFMSNDLRHISPQAKALLQDKDVIAINQDPLGKQGYQLRQGDNFEVWERPLSGLAWAVAMINRQEIGGPRSYTIAVASLGKGVACNPACFITQLLPVKRKLGFYEWTSRLRSHINPTGTVLLQLENTMQMSLKDLL

Tested on: mutant form of α-Gal A expressed in HEK-293 cells
Experiment: HEK assay (GLP HEK / Migalastat Amenability Assay): α-Gal A activity in lysates of transiently transfected HEK-293 cells incubated with or without 10 μM migalastat
Type: cell-based, human
Settings: for Absolute increase (% WT): 10 μM migalastat versus baseline; for Relative increase: 10 μM migalastat α-Gal A activity relative to baseline; for 10 μM migalastat α-Gal A activity (% WT): 5 days; for 10 μM migalastat α-Gal A activity (% WT) / Baseline α-Gal A activity (% WT): percentage of baseline wild-type α-Gal A activity; for 10 μM migalastat α-Gal A activity (% WT) / Baseline α-Gal A activity (% WT) / Baseline α-Gal A activity / 10 μM migalastat α-Gal A activity: mean ± SEM; for Baseline α-Gal A activity (% WT): absence of migalastat; for Baseline α-Gal A activity / 10 μM migalastat α-Gal A activity: lysates of HEK-293 cells transfected with the mutant form; for Baseline α-Gal A activity: incubated 5 days in the absence of migalastat; for 10 μM migalastat α-Gal A activity: incubated 5 days with 10 μM migalastat
Method: Such mutations or variants are also referred to herein as “HEK assay amenable” mutations or variants.
The α-Gal A activity is expressed as the nmoles of free 4-MU released per milligram of protein per hour (nmol/mg/hr).
In Table 7, values for the mean±standard error of the mean (SEM) were calculated. nmol/mg/hr indicates “nmoles of free 4-MU released per mg of protein per hour”. WT indicates “wild-type”. NC indicates “not calculable”. N/A indicates “not applicable”.

Molecule	Absolute increase (% WT)	Relative increase	10 μM migalastat α-Gal A activity (% WT)	Baseline α-Gal A activity (% WT)	Baseline α-Gal A activity [nmol/mg/h]	10 μM migalastat α-Gal A activity [nmol/mg/h]
B1	9.9	2.7	15.4 ± 1.5	5.4 ± 0.3	1922 ± 143	5251 ± 464
B2	33.8	1.5	97.4 ± 3.4	63.6 ± 3.3	22066 ± 1408	33544 ± 1384
B3	56.7	3.7	78.2 ± 4.2	21.5 ± 1.2	7301 ± 253	26639 ± 1124
B4	30.6	1.4	111.3 ± 4.5	80.7 ± 2	32074 ± 1858	43288 ± 2179
B5	10.2	1.2	53.6 ± 2.7	43.4 ± 1.6	15093 ± 815	18723 ± 1237
B6	29.4	1.6	83.5 ± 3.6	54.2 ± 3.9	20226 ± 1373	31280 ± 1153
B7	4.7	2.1	9 ± 0.9	4.3 ± 0.2	1607 ± 54	3303 ± 308
B8	19.3	1.5	61 ± 3.6	41.7 ± 2.1	14556 ± 986	21255 ± 1484
B9	19.7	1.5	60.6 ± 4.1	40.9 ± 3.2	13817 ± 816	20466 ± 846
